B1: U3 small nucleolar RNA-associated protein 6 (Saccharomyces cerevisiae), Q02354 (parent)
chain: MSKTRYYLEQCIPEMDDLVEKGLFTKNEVSLIMKKRTDFEHRLNSRGSSINDYIKYINYESNVNKLRAKRCKRILQVKKTNSLSDWSIQQRIGFIYQRGTNKFPQDLKFWAMYLNYMKARGNQTSYKKIHNIYNQLLKLHPTNVDIWISCAKYEYEVHANFKSCRNIFQNGLRFNPDVPKLWYEYVKFELNFITKLINRRKVMGLINEREQELDMQNEQKNNQAPDEEKSHLQVPSTGDSMKDKLNELPEADISVLGNAETNPALRGDIALTIFDVCMKTLGKHYINKHKGYYAISDSKMNIELNKETLNYLFSESLRYIKLFDEFLDLERDYLINHVLQFWKNDMYDLSLRKDLPELYLKTVMIDITLNIRYMPVEKLDIDQLQLSVKKYFAYISKLDSASVKSLKNEYRSYLQDNYLKKMNAEDDPRYKILDLIISKL
partner: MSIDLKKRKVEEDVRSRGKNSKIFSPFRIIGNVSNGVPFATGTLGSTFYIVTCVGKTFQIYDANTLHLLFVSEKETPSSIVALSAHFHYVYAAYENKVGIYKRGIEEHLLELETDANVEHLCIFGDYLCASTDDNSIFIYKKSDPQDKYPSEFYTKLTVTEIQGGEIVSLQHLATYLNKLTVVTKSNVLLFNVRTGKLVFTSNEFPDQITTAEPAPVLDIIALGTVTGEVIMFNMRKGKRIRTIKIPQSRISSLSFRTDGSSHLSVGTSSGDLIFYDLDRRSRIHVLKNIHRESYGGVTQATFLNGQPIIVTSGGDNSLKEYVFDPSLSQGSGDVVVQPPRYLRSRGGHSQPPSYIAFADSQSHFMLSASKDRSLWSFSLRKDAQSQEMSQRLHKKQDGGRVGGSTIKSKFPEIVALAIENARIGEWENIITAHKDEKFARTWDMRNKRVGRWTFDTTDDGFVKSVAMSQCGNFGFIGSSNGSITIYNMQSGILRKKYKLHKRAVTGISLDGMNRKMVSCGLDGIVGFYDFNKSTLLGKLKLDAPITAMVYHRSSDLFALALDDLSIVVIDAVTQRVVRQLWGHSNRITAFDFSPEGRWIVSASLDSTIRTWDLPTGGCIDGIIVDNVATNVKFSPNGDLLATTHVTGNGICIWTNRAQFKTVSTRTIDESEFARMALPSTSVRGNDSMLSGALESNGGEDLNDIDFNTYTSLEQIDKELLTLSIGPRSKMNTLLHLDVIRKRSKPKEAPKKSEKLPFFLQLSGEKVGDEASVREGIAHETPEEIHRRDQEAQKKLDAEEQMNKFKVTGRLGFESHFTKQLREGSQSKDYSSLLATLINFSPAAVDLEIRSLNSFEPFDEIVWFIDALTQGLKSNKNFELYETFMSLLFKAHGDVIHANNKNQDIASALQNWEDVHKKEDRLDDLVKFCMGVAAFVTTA
B2: U3 small nucleolar RNA-associated protein 6 (Saccharomyces cerevisiae), Q02354 (parent)
chain: B1 chain
partner: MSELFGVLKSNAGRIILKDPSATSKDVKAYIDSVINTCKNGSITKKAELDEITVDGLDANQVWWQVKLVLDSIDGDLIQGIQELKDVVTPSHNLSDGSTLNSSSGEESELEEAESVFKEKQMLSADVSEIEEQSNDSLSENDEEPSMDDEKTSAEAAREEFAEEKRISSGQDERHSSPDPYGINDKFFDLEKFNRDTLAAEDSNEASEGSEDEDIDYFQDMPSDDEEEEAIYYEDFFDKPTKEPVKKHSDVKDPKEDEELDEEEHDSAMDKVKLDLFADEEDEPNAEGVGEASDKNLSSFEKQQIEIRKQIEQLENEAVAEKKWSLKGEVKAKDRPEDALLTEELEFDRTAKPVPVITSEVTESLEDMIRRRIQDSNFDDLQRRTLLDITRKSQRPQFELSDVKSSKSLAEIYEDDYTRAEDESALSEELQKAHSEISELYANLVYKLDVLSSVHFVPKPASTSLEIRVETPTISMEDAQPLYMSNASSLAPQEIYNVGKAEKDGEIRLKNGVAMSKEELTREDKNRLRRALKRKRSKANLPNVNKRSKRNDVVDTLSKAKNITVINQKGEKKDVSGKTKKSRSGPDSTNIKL

Variants of: B1
Conditions: with utp21_yeast UTP21, Q06078

| Variant | effect of a mutation on the interaction |
| --- | --- |
| G99E | disrupting interaction |

Variants of: B2
Conditions: with mpp10_yeast MPP10, P47083

| Variant | effect of a mutation on the interaction |
| --- | --- |
| G99E | decreasing interaction |
